The target of this assay is actin of the F-actin structures in focal adhesions of Vero cells (monkey (endogenous in Vero)) (UniProt Q76N69). Briefly: FRAP (fluorescence recovery after photobleaching); GFP-L-plastin variants bleached in a 5 µm spot in focal adhesions of live Vero cells, 37°C; curves fitted with a two-binding-state model, reaction dominant regime; pseudo-association rates k*on = kon·Seq.

Substance “Ser5/Ala (S5/A) GFP-L-plastin, expressed in Vero cells (from UniProt P13796 1-627) (natural protein)” returned a fold change of k*2on against WT- and S5/E-L-plastin of 2 fold lower; a k1off (dissociation rate, first quick binding state) of 0.073 s⁻¹; a k*1on (pseudo-association rate, first quick binding state) of 0.173 s⁻¹.
As for “Ser5/Glu (S5/E) GFP-L-plastin, expressed in Vero cells (from UniProt P13796 1-627) (natural protein)”, the k1off (dissociation rate, first quick binding state) is 0.612 s⁻¹ and the k*1on (pseudo-association rate, first quick binding state) is 0.42 s⁻¹.
With “wild type (WT) L-plastin fused to GFP, expressed in Vero cells (from UniProt P13796 1-627) (natural protein)”, the Feq (equilibrium normalized concentration of free molecules) was found to be 0.513; the k1off (dissociation rate, first quick binding state) turned out to be 0.616 s⁻¹; the k2off (dissociation rate, second slow binding state) is 0.03 s⁻¹; the k*1on (pseudo-association rate, first quick binding state) came out at 0.338 s⁻¹. The substance further showed a k*2on (pseudo-association rate, second slow binding state) of 0.01 s⁻¹.
